Patent CN117603358A (INST MICROBIOLOGY CAS; 3SBIO GROUP; SHANXI ADVANCED …, dated 2024)

How the values were obtained:
Assay in all cases: cell-based or functional assay
S蛋白, SARS-CoV-2 BA.3 = S蛋白, SARS-CoV-2 BA.3 (SARS-CoV-2 BA.3)
S蛋白, SARS-CoV-2 XBB.1.5 [1] = target: T1, S蛋白, SARS-CoV-2 XBB.1.5 (SARS-CoV-2 XBB.1.5)
S蛋白, SARS-CoV-2 BA.2 = S蛋白, SARS-CoV-2 BA.2 (SARS-CoV-2 BA.2)
S蛋白, SARS-CoV-2 BQ.1.1 [2] = target: S蛋白, SARS-CoV-2 BQ.1.1 (SARS-CoV-2 BQ.1.1)
S蛋白, SARS-CoV-2 BA.1.1 = S蛋白, SARS-CoV-2 BA.1.1 (SARS-CoV-2 BA.1.1)
S蛋白, SARS-CoV-2 BA.2.75 [3] = target: T2, S蛋白, SARS-CoV-2 BA.2.75 (SARS-CoV-2 BA.2.75)
S蛋白, SARS-CoV-2 BA.1 [4] = target: S蛋白, SARS-CoV-2 BA.1 (SARS-CoV-2 BA.1)
S蛋白, SARS-CoV-2 XBB.1.16 = S蛋白, SARS-CoV-2 XBB.1.16 (SARS-CoV-2 XBB.1.16)
S蛋白, SARS-CoV-2 BQ.1 [5] = target: S蛋白, SARS-CoV-2 BQ.1 (SARS-CoV-2 BQ.1)
S蛋白, SARS-CoV-2 XBB [6] = target: S蛋白, SARS-CoV-2 XBB (SARS-CoV-2 XBB)
S蛋白, SARS-CoV-2 BA.4/5 [7] = target: S蛋白, SARS-CoV-2 BA.4/5 (SARS-CoV-2 BA.4/5)
S蛋白, SARS-CoV-2 BF.7 [8] = target: S蛋白, SARS-CoV-2 BF.7 (SARS-CoV-2 BF.7)
S蛋白, SARS-CoV-2 EG.5突变株 = S蛋白, SARS-CoV-2 EG.5突变株 (SARS-CoV-2 EG.5)
S蛋白, SARS-CoV-2 Delta = S蛋白, SARS-CoV-2 Delta (SARS-CoV-2 Delta)
S蛋白, SARS-CoV-2 XBB.1.5 [9] = target: T1, S蛋白, SARS-CoV-2 XBB.1.5; remark: listed apart in the source
S蛋白, SARS-CoV-2 BQ.1.1 [10] = target: S蛋白, SARS-CoV-2 BQ.1.1 (SARS-CoV-2 BQ.1.1); remark: listed apart in the source
S蛋白, SARS-CoV-2 BA.2.75 [11] = target: T2, S蛋白, SARS-CoV-2 BA.2.75; remark: listed apart in the source
S蛋白, SARS-CoV-2 BA.1 [12] = target: S蛋白, SARS-CoV-2 BA.1 (SARS-CoV-2 BA.1); remark: listed apart in the source
S蛋白, SARS-CoV-2 BQ.1 [13] = target: S蛋白, SARS-CoV-2 BQ.1 (SARS-CoV-2 BQ.1); remark: listed apart in the source
S蛋白, SARS-CoV-2 XBB [14] = target: S蛋白, SARS-CoV-2 XBB (SARS-CoV-2 XBB); remark: listed apart in the source
S蛋白, SARS-CoV-2 BA.4/5 [15] = target: S蛋白, SARS-CoV-2 BA.4/5 (SARS-CoV-2 BA.4/5); remark: listed apart in the source
S蛋白, SARS-CoV-2 BF.7 [16] = target: S蛋白, SARS-CoV-2 BF.7 (SARS-CoV-2 BF.7); remark: listed apart in the source

B1: L4.65单抗 (antibody, V domains shown)
VH: QITLKESGPTLVKPTQTLTLTCTFSGFSLSTSGVGVAWIRQPPGKALEWLALIYWDNDKRSSPSLNNRLTITKDTSKNQVVLTMTNMDPEDTATYYCAHFFSHYDSSNYYYGSWFDPWGQGTLVTVSS
VL: EIVLTQSPGTLSLSPGERATLSCRASQSFDSRYLGWYQQKSGQAPRLLIYGASSRATGIPDRFSGSGSGTDFTLTISRLEPEDFAVYYCQQFGDSPFTFGQGTKLEIKR
S蛋白, SARS-CoV-2 BA.3
  假病毒中和效果 IC50: 0.00044 µg/mL
S蛋白, SARS-CoV-2 XBB.1.5 [1]
  假病毒中和效果 IC50: 0.0137 µg/mL
S蛋白, SARS-CoV-2 BA.2
  假病毒中和效果 IC50: 0.00039 µg/mL
S蛋白, SARS-CoV-2 BQ.1.1 [2]
  假病毒中和效果 IC50: 4.58 µg/mL
S蛋白, SARS-CoV-2 BA.1.1
  假病毒中和效果 IC50: 0.00028 µg/mL
S蛋白, SARS-CoV-2 BA.2.75 [3]
  假病毒中和效果 IC50: 0.00194 µg/mL
S蛋白, SARS-CoV-2 BA.1 [4]
  假病毒中和效果 IC50: 0.000394 µg/mL
S蛋白, SARS-CoV-2 XBB.1.16
  假病毒中和效果 IC50: 0.0103 µg/mL
S蛋白, SARS-CoV-2 BQ.1 [5]
  假病毒中和效果 IC50: 2.09 µg/mL
S蛋白, SARS-CoV-2 XBB [6]
  假病毒中和效果 IC50: 0.00335 µg/mL
S蛋白, SARS-CoV-2 BA.4/5 [7]
  假病毒中和效果 IC50: 0.000377 µg/mL
S蛋白, SARS-CoV-2 BF.7 [8]
  假病毒中和效果 IC50: 0.000446 µg/mL
S蛋白, SARS-CoV-2 EG.5突变株
  假病毒中和效果 IC50: 0.0521 µg/mL
S蛋白, SARS-CoV-2 Delta
  假病毒中和活性 IC50: 0.00252 µg/mL
S蛋白, SARS-CoV-2 XBB.1.5 [9]
  假病毒中和活性 IC50: 0.0541 µg/mL
S蛋白, SARS-CoV-2 BQ.1.1 [10]
  假病毒中和活性 IC50: > 2 µg/mL
S蛋白, SARS-CoV-2 BA.2.75 [11]
  假病毒中和活性 IC50: 0.0112 µg/mL
S蛋白, SARS-CoV-2 BA.1 [12]
  假病毒中和活性 IC50: 0.00135 µg/mL
S蛋白, SARS-CoV-2 BQ.1 [13]
  假病毒中和活性 IC50: > 2 µg/mL
S蛋白, SARS-CoV-2 XBB [14]
  假病毒中和活性 IC50: 0.0214 µg/mL
S蛋白, SARS-CoV-2 BA.4/5 [15]
  假病毒中和活性 IC50: 0.00138 µg/mL
S蛋白, SARS-CoV-2 BF.7 [16]
  假病毒中和活性 IC50: 0.00212 µg/mL

B2: CoV56单抗 (antibody, V domains shown)
VH: EVQLVESGGGVVQPGGSLRLSCAVSGFTFDDYAMHWVRQAPGKGLDWVSLISGDGSYTYYADSVKGRFTISRDSSKNSLYLQMNSLRTEDTALYYCAKAQTPTLWWLQDAFDIWGQGTMVTVSS
VL: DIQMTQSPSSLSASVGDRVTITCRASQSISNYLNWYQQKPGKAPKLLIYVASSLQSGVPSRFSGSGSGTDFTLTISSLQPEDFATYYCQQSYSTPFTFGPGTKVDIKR
S蛋白, SARS-CoV-2 BA.3
  假病毒中和效果 IC50: 18.5 µg/mL
S蛋白, SARS-CoV-2 XBB.1.5 [1]
  假病毒中和效果 IC50: 11.8 µg/mL
S蛋白, SARS-CoV-2 BA.2
  假病毒中和效果 IC50: 8.32 µg/mL
S蛋白, SARS-CoV-2 BQ.1.1 [2]
  假病毒中和效果 IC50: 15.9 µg/mL
S蛋白, SARS-CoV-2 BA.1.1
  假病毒中和效果 IC50: 10.8 µg/mL
S蛋白, SARS-CoV-2 BA.2.75 [3]
  假病毒中和效果 IC50: 58.8 µg/mL
S蛋白, SARS-CoV-2 BA.1 [4]
  假病毒中和效果 IC50: 14.8 µg/mL
S蛋白, SARS-CoV-2 XBB.1.16
  假病毒中和效果 IC50: 21.7 µg/mL
S蛋白, SARS-CoV-2 BQ.1 [5]
  假病毒中和效果 IC50: 19.6 µg/mL
S蛋白, SARS-CoV-2 XBB [6]
  假病毒中和效果 IC50: 15.9 µg/mL
S蛋白, SARS-CoV-2 BA.4/5 [7]
  假病毒中和效果 IC50: 7.53 µg/mL
S蛋白, SARS-CoV-2 BF.7 [8]
  假病毒中和效果 IC50: 11.7 µg/mL
S蛋白, SARS-CoV-2 EG.5突变株
  假病毒中和效果 IC50: 13.6 µg/mL
S蛋白, SARS-CoV-2 Delta
  假病毒中和活性 IC50: > 2 µg/mL
S蛋白, SARS-CoV-2 XBB.1.5 [9]
  假病毒中和活性 IC50: > 2 µg/mL
S蛋白, SARS-CoV-2 BQ.1.1 [10]
  假病毒中和活性 IC50: > 2 µg/mL
S蛋白, SARS-CoV-2 BA.2.75 [11]
  假病毒中和活性 IC50: > 2 µg/mL
S蛋白, SARS-CoV-2 BA.1 [12]
  假病毒中和活性 IC50: > 2 µg/mL
S蛋白, SARS-CoV-2 BQ.1 [13]
  假病毒中和活性 IC50: > 2 µg/mL
S蛋白, SARS-CoV-2 XBB [14]
  假病毒中和活性 IC50: > 2 µg/mL
S蛋白, SARS-CoV-2 BA.4/5 [15]
  假病毒中和活性 IC50: > 2 µg/mL
S蛋白, SARS-CoV-2 BF.7 [16]
  假病毒中和活性 IC50: > 2 µg/mL
